For the assay, the target named is T1, human PVRL2 overexpressed on Farage cells (human, UniProt Q92692 32-538).
T1 construct: also called Farage-hPVRL2 cells; surface PVRL2
T1 sequence: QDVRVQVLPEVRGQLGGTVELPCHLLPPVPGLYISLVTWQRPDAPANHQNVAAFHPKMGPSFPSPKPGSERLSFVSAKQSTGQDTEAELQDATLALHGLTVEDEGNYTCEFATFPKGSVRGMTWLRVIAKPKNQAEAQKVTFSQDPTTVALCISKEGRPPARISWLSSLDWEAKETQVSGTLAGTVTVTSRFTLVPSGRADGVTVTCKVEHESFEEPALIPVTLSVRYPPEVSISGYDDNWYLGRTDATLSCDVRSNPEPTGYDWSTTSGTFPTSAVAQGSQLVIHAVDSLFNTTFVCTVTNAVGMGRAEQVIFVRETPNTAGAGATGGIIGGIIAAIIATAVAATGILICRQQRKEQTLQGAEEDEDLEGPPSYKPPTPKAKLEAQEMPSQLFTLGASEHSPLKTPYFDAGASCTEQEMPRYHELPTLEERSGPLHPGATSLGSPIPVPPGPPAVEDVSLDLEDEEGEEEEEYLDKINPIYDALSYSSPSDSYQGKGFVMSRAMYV
Kind of assay: flow cytometry: 300 ng/ml hPVRIG-mIgG2a on Farage-hPVRL2 cells, PE anti-mouse IgG2a [panel A]. Background: A flow cytometer gives signals particle by particle.

B1: human PVRIG-mIgG2a (Fc fusion)
chain: TPEVWVQVRMEATELSSFTIRCGFLGSGSISLVTVSWGGPNGAGGTTLAVLHPERGIRQWAPARQARWETQSSISLILEGSGASSPCANTTFCCKFASFPEGSWEACGSLPPSSDPGLSAPPTPAPILRAD
notes: also called hPVRIG-mIgG2a; hPVRIG; not shown: mouse IgG2a Fc
Regarding B1, the binding result was “binds”.

The values above are taken from US20250326842A1 (BEIGENE SWITZERLAND, published 2025).
